The chains are these.
B1: DC00080 (other)
chain 1: QVQLVESGGGLVQAGGSLRLSCAASGGTFRTRNMGWFRRAPGKEREFVAAVSWNVDNKLYADSVKGRFTISRDNGRNMVYLQMNSLKPEDTAVYYCAADNIPLSSDMRPTATEYDYWGQGTQVTVSSDKTHTCPPCPAPEAAGGPSVFLFPPKPKDTLMISRTPEVTCVVVDVSHEDPEVKFNWYVDGVEVHNAKTKPREEQYNSTYRVVSVLTVLHQDWLNGKEYKCKVSNKALGAPIEKTISKAKGQPREPQVYTLPPSRDELTKNQVSLTCLVKGFYPSDIAVEWESNGQPENNYKTTPPVLDSDGSFLLYSKLTVDKSRWQQGNVFSCSVMHEALHNHYTQKSLSLSPGK
chain 2: EVQLVESGGGLVQTGGSLRLSCAASGGTFSRDAMAWFRQVPGKEREFVALISWSGATTNYADSVKGRFAISRDNGKNTVYLQMNRLKPADTAIYYCAADRRPMGSRSYFEPTEYDDWGQGTQVTVSSGGGGSGGGGSGGGGSQVQLVESGGGLVQPGGSLRLSCATSGFTFRNNFMSWVRQAPGKGLEWVSTISYGGESTTYAESVKGRFTISRDNAKNTLYLQMNNLKPEDTAVYYCAKATSYDSIRSGSRGQGTQVTVSSGGGGSGGGGSGGGGSQVQLVESGGGLVQAGGSLTLSCAAPGRTFGTDVVGWFRQAPGKEREFVASISRSGDGIYYDDSVKGRFTISRNNAWNTVNLQMNSLKVEDTAVYYCAAGDGWSTYDYWGQGTQVTVSSGGGGSGGGGSGGGGSDKTHTCPPCPAPEAAGGPSVFLFPPKPKDTLMISRTPEVTCVVVDVSHEDPEVKFNWYVDGVEVHNAKTKPREEQYNSTYRVVSVLTVLHQDWLNGKEYKCKVSNKALGAPIEKTISKAKGQPREPQVYTLPPSRDELTKNQVSLTCLVKGFYPSDIAVEWESNGQPENNYKTTPPVLDSDGSFFLYSRLTVDKSRWQQGNVFSCSVMHEALHNHYTQKSLSLSPGK
B2: DC00081 (other)
chain 1: B1 chain 1
chain 2: QVQLVESGGGLVQPGGSLRLSCATSGFTFRNNFMSWVRQAPGKGLEWVSTISYGGESTTYAESVKGRFTISRDNAKNTLYLQMNNLKPEDTAVYYCAKATSYDSIRSGSRGQGTQVTVSSGGGGSGGGGSGGGGSQVQLVESGGGLVQAGGSLTLSCAAPGRTFGTDVVGWFRQAPGKEREFVASISRSGDGIYYDDSVKGRFTISRNNAWNTVNLQMNSLKVEDTAVYYCAAGDGWSTYDYWGQGTQVTVSSGGGGSGGGGSGGGGSEVQLVESGGGLVQTGGSLRLSCAASGGTFSRDAMAWFRQVPGKEREFVALISWSGATTNYADSVKGRFAISRDNGKNTVYLQMNRLKPADTAIYYCAADRRPMGSRSYFEPTEYDDWGQGTQVTVSSGGGGSGGGGSGGGGSDKTHTCPPCPAPEAAGGPSVFLFPPKPKDTLMISRTPEVTCVVVDVSHEDPEVKFNWYVDGVEVHNAKTKPREEQYNSTYRVVSVLTVLHQDWLNGKEYKCKVSNKALGAPIEKTISKAKGQPREPQVYTLPPSRDELTKNQVSLTCLVKGFYPSDIAVEWESNGQPENNYKTTPPVLDSDGSFFLYSRLTVDKSRWQQGNVFSCSVMHEALHNHYTQKSLSLSPGK
B3: DC00078 (other)
chain 1: QVQLVESGGGLVQAGGSLRLSCAASGIPFDNYAMGWFRQAPGKEREFVAARDLEGIITRYGDSVKGRFTISRGNAKNTVFLQMNSLKPEDTAVYYCAARDGGVVAGSRSSAQYNYWGQGTQVTVSSDKTHTCPPCPAPEAAGGPSVFLFPPKPKDTLMISRTPEVTCVVVDVSHEDPEVKFNWYVDGVEVHNAKTKPREEQYNSTYRVVSVLTVLHQDWLNGKEYKCKVSNKALGAPIEKTISKAKGQPREPQVYTLPPSRDELTKNQVSLTCLVKGFYPSDIAVEWESNGQPENNYKTTPPVLDSDGSFLLYSKLTVDKSRWQQGNVFSCSVMHEALHNHYTQKSLSLSPGK
chain 2: QVQLVESGGGLVQAGGSLTLSCAAPGRTFGTDVVGWFRQAPGKEREFVASISRSGDGIYYDDSVKGRFTISRNNAWNTVNLQMNSLKVEDTAVYYCAAGDGWSTYDYWGQGTQVTVSSGGGGSGGGGSGGGGSEVQLVESGGGLVQTGGSLRLSCAASGGTFSRDAMAWFRQVPGKEREFVALISWSGATTNYADSVKGRFAISRDNGKNTVYLQMNRLKPADTAIYYCAADRRPMGSRSYFEPTEYDDWGQGTQVTVSSGGGGSGGGGSGGGGSQVQLVESGGGLVQPGGSLRLSCATSGFTFRNNFMSWVRQAPGKGLEWVSTISYGGESTTYAESVKGRFTISRDNAKNTLYLQMNNLKPEDTAVYYCAKATSYDSIRSGSRGQGTQVTVSSDKTHTCPPCPAPEAAGGPSVFLFPPKPKDTLMISRTPEVTCVVVDVSHEDPEVKFNWYVDGVEVHNAKTKPREEQYNSTYRVVSVLTVLHQDWLNGKEYKCKVSNKALGAPIEKTISKAKGQPREPQVYTLPPSRDELTKNQVSLTCLVKGFYPSDIAVEWESNGQPENNYKTTPPVLDSDGSFFLYSRLTVDKSRWQQGNVFSCSVMHEALHNHYTQKSLSLSPGK
B4: DC00079 (other)
chain 1: B3 chain 1
chain 2: QVQLVESGGGLVQAGGSLTLSCAAPGRTFGTDVVGWFRQAPGKEREFVASISRSGDGIYYDDSVKGRFTISRNNAWNTVNLQMNSLKVEDTAVYYCAAGDGWSTYDYWGQGTQVTVSSGGGGSGGGGSGGGGSQVQLVESGGGLVQPGGSLRLSCATSGFTFRNNFMSWVRQAPGKGLEWVSTISYGGESTTYAESVKGRFTISRDNAKNTLYLQMNNLKPEDTAVYYCAKATSYDSIRSGSRGQGTQVTVSSGGGGSGGGGSGGGGSEVQLVESGGGLVQTGGSLRLSCAASGGTFSRDAMAWFRQVPGKEREFVALISWSGATTNYADSVKGRFAISRDNGKNTVYLQMNRLKPADTAIYYCAADRRPMGSRSYFEPTEYDDWGQGTQVTVSSGGGGSGGGGSGGGGSDKTHTCPPCPAPEAAGGPSVFLFPPKPKDTLMISRTPEVTCVVVDVSHEDPEVKFNWYVDGVEVHNAKTKPREEQYNSTYRVVSVLTVLHQDWLNGKEYKCKVSNKALGAPIEKTISKAKGQPREPQVYTLPPSRDELTKNQVSLTCLVKGFYPSDIAVEWESNGQPENNYKTTPPVLDSDGSFFLYSRLTVDKSRWQQGNVFSCSVMHEALHNHYTQKSLSLSPGK

Where only a bound is given, the exact number is not on record here.

The target in the experiment is T1, human IL-2 receptor (IL-2Rα/IL-2Rβ/γc) (human, UniProt P01589 22-272; P14784 27-551; P31785 23-369).
T1 sequence 1: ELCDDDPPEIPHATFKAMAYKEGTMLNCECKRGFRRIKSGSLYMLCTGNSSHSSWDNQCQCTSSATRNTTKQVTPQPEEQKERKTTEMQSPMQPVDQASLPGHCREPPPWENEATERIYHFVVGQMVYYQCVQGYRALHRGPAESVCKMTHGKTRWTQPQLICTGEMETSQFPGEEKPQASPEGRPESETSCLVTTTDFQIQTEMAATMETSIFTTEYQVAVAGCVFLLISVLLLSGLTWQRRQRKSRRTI
T1 sequence 2: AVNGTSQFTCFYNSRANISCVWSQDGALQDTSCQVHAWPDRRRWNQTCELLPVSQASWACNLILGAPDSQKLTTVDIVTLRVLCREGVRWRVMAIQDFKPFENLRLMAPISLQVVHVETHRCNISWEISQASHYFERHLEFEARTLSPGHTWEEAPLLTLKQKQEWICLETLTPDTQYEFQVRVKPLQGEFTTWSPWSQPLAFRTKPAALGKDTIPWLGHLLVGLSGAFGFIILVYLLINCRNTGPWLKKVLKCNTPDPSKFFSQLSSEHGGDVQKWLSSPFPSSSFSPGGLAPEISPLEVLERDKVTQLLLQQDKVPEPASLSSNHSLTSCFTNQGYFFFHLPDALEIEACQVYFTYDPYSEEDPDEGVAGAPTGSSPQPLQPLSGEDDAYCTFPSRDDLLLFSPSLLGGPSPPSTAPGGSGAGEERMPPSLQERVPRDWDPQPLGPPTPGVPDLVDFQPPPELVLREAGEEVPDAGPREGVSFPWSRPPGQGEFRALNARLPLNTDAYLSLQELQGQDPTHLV
T1 sequence 3: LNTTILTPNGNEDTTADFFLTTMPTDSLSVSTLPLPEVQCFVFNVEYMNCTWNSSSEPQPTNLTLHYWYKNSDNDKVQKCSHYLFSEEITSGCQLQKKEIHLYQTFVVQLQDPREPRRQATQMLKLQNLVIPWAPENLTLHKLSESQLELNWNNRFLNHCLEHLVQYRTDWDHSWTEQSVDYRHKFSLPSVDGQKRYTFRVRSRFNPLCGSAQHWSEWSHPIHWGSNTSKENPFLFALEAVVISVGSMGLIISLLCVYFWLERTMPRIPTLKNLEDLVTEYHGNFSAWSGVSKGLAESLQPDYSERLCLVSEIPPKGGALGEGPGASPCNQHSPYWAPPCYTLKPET
The experiment in a line: cell-based or functional assay.
In the case of B1, the “EC50 (nM) pSTAT5, NK, human PBMCs” value is 0.00648 nM; the “EC50 (nM) pSTAT5, Treg, human PBMCs” value was below 0.1 pM; the “Fold Max signal (% pSTAT5+) Treg/NK” value turned out to be 4 fold; the “Max signal (% pSTAT5+), NK” value was 4.42 % pSTAT5+. Also, the “Max signal (% pSTAT5+), Treg” value is 17.8 % pSTAT5+ and the “fold EC50 NK/Treg” value was above 64.8 fold.
Take B2: the “EC50 (nM) pSTAT5, NK, human PBMCs” value worked out at 0.194 nM; the “EC50 (nM) pSTAT5, Treg, human PBMCs” value was below 0.1 pM; the “Fold Max signal (% pSTAT5+) Treg/NK” value amounted to 5 fold; the “Max signal (% pSTAT5+), NK” value was 13.5 % pSTAT5+. Besides, the “Max signal (% pSTAT5+), Treg” value came out at 60.9 % pSTAT5+ and the “fold EC50 NK/Treg” value is above 1940 fold.
B3: the “EC50 (nM) pSTAT5, NK, human PBMCs” value is 0.195 nM; the “EC50 (nM) pSTAT5, Treg, human PBMCs” value was below 0.1 pM; the “Fold Max signal (% pSTAT5+) Treg/NK” value was 5 fold; the “Max signal (% pSTAT5+), NK” value stood at 14.1 % pSTAT5+. Also, the “Max signal (% pSTAT5+), Treg” value is 67.8 % pSTAT5+ and the “fold EC50 NK/Treg” value was above 1950 fold.
With B4, the “EC50 (nM) pSTAT5, NK, human PBMCs” value is 0.0993 nM; the “EC50 (nM) pSTAT5, Treg, human PBMCs” value was below 0.1 pM; the “Fold Max signal (% pSTAT5+) Treg/NK” value turned out to be 8 fold; the “Max signal (% pSTAT5+), NK” value stood at 7.35 % pSTAT5+. Further, the “Max signal (% pSTAT5+), Treg” value worked out at 62.4 % pSTAT5+ and the “fold EC50 NK/Treg” value was above 994 fold.

The record behind these values is US20240409645A1 (DUALYX, published 2024).
